Measured values: the supplement of paper PMC7877785
± gives the uncertainty stated by the source.

Assay: self-splicing fitness, log relative to wild type (ln ratio); higher = more splicing; Tetrahymena group I intron in knt gene, E. coli kanamycin selection, DiMSum; sequences stand for … in CUCUCU…GGAGGGAAAAGUUAUCAGGCAUGCACCUGGUAGCUAGUCUUUAAACCAAUAGAUUGCAUCGGUUUAAAAGGCAAGACCGUCAAAUUGCGGGAAAGGGGUCAACAGCCGUUCAGUACCAAGUCUCAGGGGAAACUUUGAGAUGGCCUUGCAAAGGGUAUGGUAAUAAGCUGACGGACAUGGUCCUAACCACGCAGCCAAGUCCUAAGUCAACAGAUCUUCUGUUGAUAUGGAUGCAGUUCACAGACUAAAUGUCGGUCGGGGAAGAUGUAUUCUUCUCAUAAGAUAUAGUCGGACCUCUCCUUAAUGGGAGCUAGCGGAUGAAGUGAUGCAACACUGGAGCCGCUGGGAACUAAUUUGUAUGCGAAAGUAUAUUGAUUAGUUUUGGAGUACUCGUGGUCG
In short: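 DiMSum derived fitness as the error-weighted combination of fold changes across replicates, kanamycin versus no kanamycin, normalised to wild type. E. coli BL21(DE3) held the library, which randomised all eight P1ex-region intron nucleotides within the knt kanamycin-resistance gene on pET-22b(+). Six replicate transformations grew overnight at 37°C or 30°C on LB agar with or without 25 μg/mL kanamycin, also containing 100 μg/mL carbenicillin, 50 μM IPTG and 0.2% rhamnose, and pooled colonies were amplicon-sequenced on an Illumina HiSeq 2500.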

Sequence	self-splicing fitness (ln) (37 °C)	self-splicing fitness (ln) (30 °C)
CAAGAGCAAUAUUACGACGC	-1.56 ± 0.32	–
UGGCAGCAAUAUUACGGGGU	-2.62 ± 0.14	-3.97 ± 0.13
GUCUAGCAAUAUUACGCUGU	-0.224 ± 0.094	-0.966 ± 0.09
UCUUAGCAAUAUUACGAUCA	-1.15 ± 0.23	-1.3 ± 0.22
ACAUAGCAAUAUUACGAAAG	-2.06 ± 0.23	-3.36 ± 0.22
GCGCAGCAAUAUUACGACCA	-0.19 ± 0.23	-1.56 ± 0.25
AAACAGCAAUAUUACGUGAG	-0.552 ± 0.064	-0.858 ± 0.04
GCCCAGCAAUAUUACGGGUA	-0.511 ± 0.06	-1.34 ± 0.061
UAACAGCAAUAUUACGUCCG	0.0833 ± 0.12	-0.0665 ± 0.086
GACCAGCAAUAUUACGCGCC	-0.617 ± 0.18	-0.0376 ± 0.14
UUAGAGCAAUAUUACGCAGA	–	1.56 ± 0.32
UACGAGCAAUAUUACGACGA	-0.325 ± 0.13	-1.85 ± 0.18
AUCAAGCAAUAUUACGACAA	-0.427 ± 0.12	-1 ± 0.12
ACUGAGCAAUAUUACGUGAC	-2.95 ± 0.27	-3.23 ± 0.2
AGAGAGCAAUAUUACGAUGU	-2.69 ± 0.36	-2.52 ± 0.41
AUUAAGCAAUAUUACGUGAC	-1.75 ± 0.18	-3.17 ± 0.17
GAAUAGCAAUAUUACGUUCU	-1.82 ± 0.27	-3.24 ± 0.26
AGGAAGCAAUAUUACGCAUU	-2.13 ± 0.26	-3.7 ± 0.35
CUGGAGCAAUAUUACGAGCU	-1.66 ± 0.46	–
GCUUAGCAAUAUUACGCUAG	-2.19 ± 0.14	-2.81 ± 0.12
GGACAGCAAUAUUACGUAUU	-0.492 ± 0.068	-0.426 ± 0.049
CAUCAGCAAUAUUACGCGUC	-0.783 ± 0.086	-2.58 ± 0.089
UGCCAGCAAUAUUACGGCCU	-0.213 ± 0.12	-0.579 ± 0.1
GUUUAGCAAUAUUACGGGAG	-1.83 ± 0.2	-1.44 ± 0.18
UAUCAGCAAUAUUACGGACG	0.00709 ± 0.11	-0.108 ± 0.091
GUCGAGCAAUAUUACGCAUA	-1.6 ± 0.16	-2.14 ± 0.18

Sequence	self-splicing fitness (ln) (37 °C)	self-splicing fitness (ln) (30 °C)
CAGAAGCAAUAUUACGGGGU	-2.34 ± 0.21	-2.98 ± 0.19
AGCCAGCAAUAUUACGCCUG	-2.11 ± 0.27	-2.37 ± 0.16
UGUUAGCAAUAUUACGCCAA	-1.4 ± 0.23	-1.32 ± 0.19
UGAAAGCAAUAUUACGGGCU	-1.97 ± 0.27	-2.04 ± 0.16
GUCUAGCAAUAUUACGUUCC	-0.649 ± 0.2	-1.14 ± 0.16
UGGGAGCAAUAUUACGGGCU	–	-1.78 ± 0.35
CACCAGCAAUAUUACGUCUC	-2.38 ± 0.21	-2.89 ± 0.13
AUUCAGCAAUAUUACGGGAC	-1.2 ± 0.12	-3.2 ± 0.16
UAUUAGCAAUAUUACGAUGA	0.262 ± 0.13	-0.641 ± 0.11
AACGAGCAAUAUUACGGAUA	-1.85 ± 0.29	-2.98 ± 0.22
CAGCAGCAAUAUUACGACCU	-1.57 ± 0.12	-2.57 ± 0.14
GAUUAGCAAUAUUACGCUAU	–	-2.97 ± 0.41
CAAAAGCAAUAUUACGCCCG	0.354 ± 0.15	-0.0339 ± 0.13
CAAUAGCAAUAUUACGCGGA	-2.05 ± 0.16	-3.59 ± 0.35
GUGCAGCAAUAUUACGGUUC	-0.684 ± 0.11	-0.353 ± 0.075
CUGGAGCAAUAUUACGCCUG	-1.39 ± 0.28	-1.22 ± 0.22
GCUUAGCAAUAUUACGGGGU	-2.55 ± 0.21	-2.56 ± 0.16
CGUCAGCAAUAUUACGAACG	-1.32 ± 0.18	-2.55 ± 0.17
GCCCAGCAAUAUUACGCUUC	-1.33 ± 0.091	-1.18 ± 0.089
AUCAAGCAAUAUUACGCGGU	-2.03 ± 0.16	-4.07 ± 0.19
GCCUAGCAAUAUUACGUACA	-1.7 ± 0.13	-2.54 ± 0.14
CCCCAGCAAUAUUACGGGGA	-3 ± 0.15	-3.15 ± 0.14
CAGGAGCAAUAUUACGGGAU	-2.28 ± 0.23	-3.55 ± 0.22
UUGCAGCAAUAUUACGAAUG	-0.713 ± 0.1	-1.98 ± 0.086
ACCAAGCAAUAUUACGAUCG	-0.395 ± 0.093	-1.43 ± 0.067
CACUAGCAAUAUUACGGGAC	-1.7 ± 0.18	-3.86 ± 0.21

Sequence	self-splicing fitness (ln) (37 °C)	self-splicing fitness (ln) (30 °C)
AAUCAGCAAUAUUACGCAUU	-0.498 ± 0.086	-1.1 ± 0.072
CCCUAGCAAUAUUACGAUCA	-2.22 ± 0.24	-3.03 ± 0.25
GAUCAGCAAUAUUACGUGCU	-2.2 ± 0.16	-3.41 ± 0.15
CUCGAGCAAUAUUACGUGCA	-1.01 ± 0.17	-2.2 ± 0.17
CUACAGCAAUAUUACGAUUU	-1.95 ± 0.14	-4.36 ± 0.22
CUGGAGCAAUAUUACGGACA	-2.45 ± 0.46	-3.7 ± 0.43
CCAAAGCAAUAUUACGUCCA	-2.19 ± 0.3	-2.8 ± 0.26
GGGGAGCAAUAUUACGUCUC	–	-1.64 ± 0.4
CCAAAGCAAUAUUACGAAAU	-3.2 ± 0.28	-3.31 ± 0.19
UGGAAGCAAUAUUACGGUGG	-0.276 ± 0.11	-1.42 ± 0.091
CAGGAGCAAUAUUACGUUAC	-3.01 ± 0.21	-2.43 ± 0.13
CCAGAGCAAUAUUACGGCAC	-2.73 ± 0.27	-3.21 ± 0.32
CAGCAGCAAUAUUACGUUGG	-0.788 ± 0.084	-1.91 ± 0.072
AAGUAGCAAUAUUACGACUG	-0.593 ± 0.11	0.323 ± 0.082
CGCCAGCAAUAUUACGGCGG	-1.83 ± 0.17	-2.23 ± 0.13
ACGUAGCAAUAUUACGAAAC	-2.26 ± 0.4	-2.02 ± 0.45
CCAUAGCAAUAUUACGUUGC	-2.52 ± 0.23	-4.15 ± 0.22
CGAAAGCAAUAUUACGCCGG	0.34 ± 0.17	-0.615 ± 0.14
UUAAAGCAAUAUUACGCCCA	0.402 ± 0.14	0.818 ± 0.11
GUCUAGCAAUAUUACGAGCG	-0.599 ± 0.16	-2.05 ± 0.14
CAUUAGCAAUAUUACGUCCU	-1.38 ± 0.15	-3.14 ± 0.18
AGACAGCAAUAUUACGUUUA	-0.782 ± 0.083	-2.45 ± 0.094
GAGAAGCAAUAUUACGAUGC	-0.435 ± 0.21	-1.06 ± 0.15
AUAGAGCAAUAUUACGGGAA	-2.46 ± 0.25	-3.43 ± 0.26
UCACAGCAAUAUUACGAUUG	-1.34 ± 0.11	-2.97 ± 0.12
